The text below walks through data of paper PMC10239695.

Assay [1] deals with IBSSαγ complex.
Substrate in assay [2]: T1, BSSαγ complex (UniProt O68395)
T1 sequence 1: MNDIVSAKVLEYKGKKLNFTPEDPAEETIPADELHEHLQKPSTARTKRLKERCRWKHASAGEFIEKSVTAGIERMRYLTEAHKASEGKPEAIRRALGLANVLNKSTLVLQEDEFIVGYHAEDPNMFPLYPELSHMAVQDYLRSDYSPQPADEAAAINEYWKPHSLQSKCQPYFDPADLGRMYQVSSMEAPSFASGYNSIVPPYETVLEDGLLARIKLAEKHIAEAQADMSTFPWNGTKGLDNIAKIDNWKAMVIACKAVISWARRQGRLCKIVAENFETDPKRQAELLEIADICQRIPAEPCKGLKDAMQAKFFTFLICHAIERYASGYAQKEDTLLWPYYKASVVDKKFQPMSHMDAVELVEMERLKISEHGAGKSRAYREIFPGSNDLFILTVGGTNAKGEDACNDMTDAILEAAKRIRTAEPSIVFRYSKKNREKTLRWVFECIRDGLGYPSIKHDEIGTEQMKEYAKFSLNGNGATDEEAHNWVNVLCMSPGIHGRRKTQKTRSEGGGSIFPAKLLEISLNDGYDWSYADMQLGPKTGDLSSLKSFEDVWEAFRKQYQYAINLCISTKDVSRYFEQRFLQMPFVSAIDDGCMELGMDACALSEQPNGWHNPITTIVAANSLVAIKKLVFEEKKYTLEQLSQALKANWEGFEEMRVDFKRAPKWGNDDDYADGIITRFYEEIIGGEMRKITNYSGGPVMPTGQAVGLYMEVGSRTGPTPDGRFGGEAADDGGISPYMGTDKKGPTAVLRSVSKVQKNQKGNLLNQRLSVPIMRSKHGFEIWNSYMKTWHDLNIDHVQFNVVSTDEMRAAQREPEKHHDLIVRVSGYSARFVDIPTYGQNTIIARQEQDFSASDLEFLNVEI
T1 sequence 2: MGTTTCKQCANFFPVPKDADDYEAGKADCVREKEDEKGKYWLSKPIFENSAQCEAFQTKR

Turning to “4-isopropylbenzylsuccinate synthase beta subunit (IBSSβ), affinity tag removed (from UniProt A0A096ZP03 1-73) (natural protein)”, in assay [1], the AdoMet cleavage by as purified IbsAE with IBSSαγ and IBSSβ added (dAdo by LCMS, 2 h endpoint, n = 3); 47.6 μM dAdo without IBSSβ stood at 7.2 μM dAdo; the AdoMet cleavage by reconstituted IbsAE with IBSSαγ and IBSSβ added (dAdo by LCMS, 2 h endpoint, n = 3); 46.7 μM dAdo without IBSSβ was found to be 5.4 μM dAdo.

“4-isopropylbenzylsuccinate synthase activating enzyme (IbsAE)”: in assay [1], the AdoMet cleavage by as purified IbsAE with IBSSαγ added (dAdo by LCMS, 2 h endpoint, n = 3); 1.1 μM dAdo without IBSSαγ was found to be 47.6 μM dAdo and the AdoMet cleavage by reconstituted IbsAE with IBSSαγ added (dAdo by LCMS, 2 h endpoint, n = 3); 1.4 μM dAdo without IBSSαγ is 46.7 μM dAdo.

B1: Benzylsuccinate synthase beta subunit (BSSβ), affinity tag removed (natural protein)
chain: MEGSNMETGQNLQNQPHTEVGTARPCRSCKWQTPDPTDPHRGQCTANRHAMGGVWKRWLRDVENTTCSRHEEGKLSFRDHV
On to B1, for which, in assay [2], the benzylsuccinate formed from fumarate and toluene by activated BSSαγ (40 μM) with BSSβ (40 μM) added (assay yield by QToF-LCMS, n = 9); 0.7% without BSSβ (% assay yield) was 92.3.
